Laboratory results published in patent US20230406948A1 (APEXIGEN, published 2023).

Experiments:
[1] = biological target: T1, human CD40 on cells (native CD40 on Ramos cells, human B cells, human monocyte-derived dendritic cells); cell … (human, UniProt P25942 21-193); experiment: cell-based or functional assay
[2] = biological target: T1, human CD40 on cells (native CD40 on …); experiment: FACS on live Ramos cells, goat anti-human IgG PE
Procedure: (§1) In another experiment, the ability of the CD40 antibodies to bind to native CD40 protein was determined by FACS analysis with live Ramos cells. Ramos cells were harvested and blocked with 1.5 ml blocking buffer (0.1% BSA/PBS) for 30 minutes. Antibodies at various concentrations were added to cells and incubated for 1 hour. After washing, 50 ul Goat-anti-human IgG (H+L) PE antibody at 1:1000 dilution in blocking solution was added and incubated for 30 minutes. Cells were then washed with PBS and were re-suspended with […] and analyzed by FACS. The antibodies tested were the 19-21 rabbit anti-CD40 agonist antibody, SGN-40 developed by Seattle Genetics and CP870893 from Pfizer.

[3] = biological target: T2, CD40-Fc protein (Homo sapiens (Human), UniProt P25942 21-193); experiment: ELISA, plates coated with CD40-Fc protein, OD405nm
T2 construct: not shown: Fc
From the text: In order to assess the ability of the APX005 […] mutant to bind to CD40, APX005 S267E heavy chain and light chain plasmids were purified from transformed bacteria and transfected into 293-6E cell. Four days after transfection, antibody-containing culture supernatants were collected and tested for binding to CD40 using ELISA (ELISA plates coated with CD40-Fc protein).

[4] = biological target: T1, human CD40 on cells (native CD40 on …); experiment: FACS on live Ramos cells, goat anti-human IgG (H+L) PE
Procedure: as §1

[5] = biological target: T3, mouse CD40 on mouse A20 cells (mouse, UniProt P27512 20-289); experiment: FACS on mouse A20 cells, goat anti-human IgG (H+L) R-PE
T3 construct: whole, on cells
Procedure: Cross-reactivity of APX005 with mouse CD40 was further determined by FACS binding to a mouse A20 cell line which expresses mouse CD40. An aliquot of 0.5×10⁶ A20 cells was added to 96 well plates and incubated with 100 μl diluted rat anti-mouse CD40 antibody conjugated with PE, APX005 or IgG1 control antibodies. After washing, 100 μl Goat-anti human IgG (H+L) conjugated with R-PE (Southern Biotech CAT #2040-09) were added at 1:200 dilution in PBS to the sample and incubated for detection of APX005 and control human IgG1. A rat anti-mouse CD40 antibody conjugated with PE was used as positive control. Samples were re-suspended with 0.5 ml PBS and analyzed by FACS.

[6] = biological target: T1, human CD40 on cells (native CD40 on …); experiment: FACS on Ramos cells, 4 h at 37 C, Alexa 488 goat anti-human IgG
Procedure: (§2) In order to assess the target mediated-internalization of APX005 for evaluating its impact on ADCC activity, Ramos cells were incubated with APX005 for 4 h at 37° C., a temperature permissive for internalization, or at 4° C. for 30 minutes, a temperature at which internalization is minimized. Cells were washed with staining buffer, followed by incubation with Alexa 488 labeled goat anti-human IgG for an additional 30 minutes at 4° C. FACS analysis was performed to examine the level of APX005 on the cell surface.

[7] = biological target: T1, human CD40 on cells (native CD40 on …); experiment: FACS on Ramos cells, 30 min at 4 C, Alexa 488 goat anti-human IgG
Procedure: as §2

[8] = biological target: T4, fusion protein of rabbit Fc and DR5 (UniProt O14763 56-182, limits assumed); experiment: direct ELISA, 1 ug/ml rabbit Fc-DR5 fusion coated, goat anti-human IgG-HRP
T4 construct: Neither the species nor the order of the parts is stated; not shown: rabbit Fc
Procedure: (§3) Binding selectivity of APX005 was assessed by direct ELISA to a panel of TNFR family proteins. A total of 1 μg/ml of fusion protein of rabbit Fc and CD40, RANK, TweakR, OX40, DR5 and 4-1 BB were coated on ELISA plates. Bound APX005 was detected using goat anti-human HRP-conjugated IgG.

[9] = biological target: T5, fusion protein of rabbit Fc and OX40 (UniProt P43489 29-216); experiment: direct ELISA, 1 ug/ml rabbit Fc-OX40 fusion coated, goat anti-human IgG-HRP
T5 construct: Neither the species nor the order of the parts is stated; not shown: rabbit Fc
T5 sequence (looked up): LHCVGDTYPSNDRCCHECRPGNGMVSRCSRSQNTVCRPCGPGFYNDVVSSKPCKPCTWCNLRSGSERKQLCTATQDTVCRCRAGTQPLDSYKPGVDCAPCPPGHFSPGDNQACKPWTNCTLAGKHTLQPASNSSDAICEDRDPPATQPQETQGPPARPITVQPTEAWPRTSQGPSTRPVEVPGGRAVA
Procedure: as §3

[10] = biological target: T6, fusion protein of rabbit Fc and RANK (UniProt Q9Y6Q6 30-212, limits assumed); experiment: direct ELISA, 1 ug/ml rabbit Fc-RANK fusion coated, goat anti-human IgG-HRP
T6 construct: Neither the species nor the order of the parts is stated; not shown: rabbit Fc
T6 sequence (looked up): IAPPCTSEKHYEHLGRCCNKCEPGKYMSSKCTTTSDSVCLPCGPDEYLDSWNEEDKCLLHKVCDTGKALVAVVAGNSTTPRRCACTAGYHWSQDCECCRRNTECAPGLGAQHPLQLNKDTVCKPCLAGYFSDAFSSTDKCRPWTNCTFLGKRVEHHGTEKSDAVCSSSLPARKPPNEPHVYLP
Procedure: as §3

[11] = biological target: T7, fusion protein of rabbit Fc and TweakR (UniProt Q9NP84 28-80, limits assumed); experiment: direct ELISA, 1 ug/ml rabbit Fc-TweakR fusion coated, goat anti-human IgG-HRP
T7 construct: Neither the species nor the order of the parts is stated; not shown: rabbit Fc
Procedure: as §3

T1 sequence (P25942 21-193): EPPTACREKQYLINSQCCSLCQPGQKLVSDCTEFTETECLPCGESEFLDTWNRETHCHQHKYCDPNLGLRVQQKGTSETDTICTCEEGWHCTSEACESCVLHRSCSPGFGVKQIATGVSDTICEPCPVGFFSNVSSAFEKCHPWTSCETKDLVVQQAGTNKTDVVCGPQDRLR
T3 sequence (P27512 20-289): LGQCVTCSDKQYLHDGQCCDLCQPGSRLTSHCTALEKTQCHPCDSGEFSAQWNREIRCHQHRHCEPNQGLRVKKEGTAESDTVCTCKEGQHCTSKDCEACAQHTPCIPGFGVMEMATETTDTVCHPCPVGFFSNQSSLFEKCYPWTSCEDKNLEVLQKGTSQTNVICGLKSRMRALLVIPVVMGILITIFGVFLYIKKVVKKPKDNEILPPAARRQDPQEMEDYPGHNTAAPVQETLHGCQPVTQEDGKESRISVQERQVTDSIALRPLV
T2 sequence (P25942 21-193 limits assumed): as the sequence (P25942 21-193) above
T4 sequence (O14763 56-182 limits assumed): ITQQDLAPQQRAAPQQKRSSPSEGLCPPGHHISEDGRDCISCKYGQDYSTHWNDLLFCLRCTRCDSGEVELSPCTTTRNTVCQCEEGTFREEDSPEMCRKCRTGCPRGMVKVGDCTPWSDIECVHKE

B1: APX005, humanized version of the R-8 rabbit anti-CD40 antibody (antibody, IgG1, V domains shown)
VH: QVQLVESGGGVVQPGRSLRLSCAASGFSFSSTYVCWVRQAPGKGLEWIACIYTGDGTNYSASWAKGRFTISKDSSKNTVYLQMNSLRAEDTAVYFCARPDITYGFAINFWGPGTLVTVSS
VL: DIQMTQSPSSLSASVGDRVTIKCQASQSISSRLAWYQQKPGKPPKLLIYRASTLASGVPSRFSGSGSGTDFTLTISSLQPEDVATYYCQCTGYGISWPIGGGTKVEIK
notes: also called humanized R-8; APX005 wild type
- EC50 (ng/ml), CD40 agonist activity: up-regulation of CD86 on human B cells [1]: 24.4 ng/mL
- fold higher affinity than CP870893 [2]: 6 fold
- EC50 [3]: 0.0563 µg/mL
- EC50 [4]: 0.023 µg/mL
- binding result [5]: no binding (tested: 10000 ng/ml)
- EC50 (read off the curve) [6]: ~0.05 µg/mL
- EC50 (read off the curve) [7]: ~0.05 µg/mL
- binding result [8]: no binding
- binding result [9]: no binding
- binding result [10]: no binding
- binding result [11]: no binding
